In article PMC6858450:
Values belong to the molecule of their own block, whether it stands above or below them. Primed or numbered codes have the meaning given here. No end group written: not given here. *: point of attachment. Mca = COc1ccc2c(CC(=O)*)cc(=O)oc2c1; Dnp′ = not defined here

Experiments:
[1] = test system: securin-separase fusion C2029S (catalytically dead) (Homo sapiens); assay: fluorescence polarization; conditions: 25 mM HEPES pH 7.8, 50 mM KCl, 5 mM MgCl2, 0.5 mM TCEP; 1 nM DNA; 30 min at 25 °C
[2] = target: active (apo, securin-free) human separase (human) (UniProt Q14674)
Sequence of UniProt Q14674 (Q14674 whole entry S1126A): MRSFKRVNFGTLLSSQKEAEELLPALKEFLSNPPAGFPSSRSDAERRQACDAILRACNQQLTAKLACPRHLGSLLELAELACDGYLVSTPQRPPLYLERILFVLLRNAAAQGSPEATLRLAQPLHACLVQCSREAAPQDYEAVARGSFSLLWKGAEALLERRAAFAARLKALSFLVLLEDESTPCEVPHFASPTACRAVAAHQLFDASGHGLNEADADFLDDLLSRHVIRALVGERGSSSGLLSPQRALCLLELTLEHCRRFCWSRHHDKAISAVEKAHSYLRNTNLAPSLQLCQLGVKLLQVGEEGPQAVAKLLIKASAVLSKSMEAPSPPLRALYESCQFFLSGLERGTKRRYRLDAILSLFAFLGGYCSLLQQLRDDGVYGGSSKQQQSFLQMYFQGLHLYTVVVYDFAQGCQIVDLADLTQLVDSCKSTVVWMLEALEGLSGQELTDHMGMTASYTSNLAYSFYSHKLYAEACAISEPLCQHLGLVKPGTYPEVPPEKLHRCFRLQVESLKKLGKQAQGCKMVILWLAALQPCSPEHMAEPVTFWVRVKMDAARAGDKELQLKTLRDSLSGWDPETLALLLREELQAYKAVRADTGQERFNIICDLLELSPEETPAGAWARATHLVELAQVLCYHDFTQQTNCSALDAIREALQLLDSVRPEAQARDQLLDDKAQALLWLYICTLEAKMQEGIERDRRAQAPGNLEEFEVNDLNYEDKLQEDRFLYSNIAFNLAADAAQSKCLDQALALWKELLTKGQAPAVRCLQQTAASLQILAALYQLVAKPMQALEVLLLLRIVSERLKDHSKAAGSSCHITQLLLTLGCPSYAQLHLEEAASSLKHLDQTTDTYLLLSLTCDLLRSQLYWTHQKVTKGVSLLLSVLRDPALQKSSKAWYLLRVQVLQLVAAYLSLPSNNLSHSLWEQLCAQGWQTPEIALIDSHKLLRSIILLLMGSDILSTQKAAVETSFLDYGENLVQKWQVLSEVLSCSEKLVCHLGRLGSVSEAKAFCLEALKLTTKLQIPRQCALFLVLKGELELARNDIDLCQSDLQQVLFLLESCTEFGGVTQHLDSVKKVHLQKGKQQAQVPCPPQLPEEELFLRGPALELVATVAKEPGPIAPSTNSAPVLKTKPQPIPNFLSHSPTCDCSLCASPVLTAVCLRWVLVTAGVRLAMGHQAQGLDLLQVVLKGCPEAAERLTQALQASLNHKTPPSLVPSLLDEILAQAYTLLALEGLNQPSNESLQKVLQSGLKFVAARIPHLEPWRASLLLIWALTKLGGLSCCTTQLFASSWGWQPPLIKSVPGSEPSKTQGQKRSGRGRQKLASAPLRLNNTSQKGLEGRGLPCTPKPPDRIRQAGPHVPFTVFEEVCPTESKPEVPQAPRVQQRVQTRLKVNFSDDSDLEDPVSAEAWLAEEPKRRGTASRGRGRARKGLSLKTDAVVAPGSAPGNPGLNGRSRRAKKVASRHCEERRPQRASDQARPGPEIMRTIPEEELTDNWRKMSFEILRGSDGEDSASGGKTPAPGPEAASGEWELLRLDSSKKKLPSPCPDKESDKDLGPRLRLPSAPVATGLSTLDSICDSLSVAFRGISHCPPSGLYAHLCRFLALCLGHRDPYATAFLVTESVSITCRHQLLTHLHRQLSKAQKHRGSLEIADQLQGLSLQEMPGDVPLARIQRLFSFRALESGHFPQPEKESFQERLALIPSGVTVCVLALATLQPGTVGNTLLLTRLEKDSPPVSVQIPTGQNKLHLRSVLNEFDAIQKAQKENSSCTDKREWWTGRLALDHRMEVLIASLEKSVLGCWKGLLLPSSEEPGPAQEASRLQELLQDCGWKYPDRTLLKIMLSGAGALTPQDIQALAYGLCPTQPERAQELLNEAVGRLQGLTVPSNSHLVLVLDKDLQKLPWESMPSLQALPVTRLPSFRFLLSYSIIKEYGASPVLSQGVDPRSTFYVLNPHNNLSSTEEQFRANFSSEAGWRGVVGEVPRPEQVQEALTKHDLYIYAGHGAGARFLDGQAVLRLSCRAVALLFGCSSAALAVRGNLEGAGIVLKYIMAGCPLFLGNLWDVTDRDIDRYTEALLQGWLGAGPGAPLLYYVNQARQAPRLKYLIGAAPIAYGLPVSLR

[3] = target: active (apo, securin-free) human separase (human) (UniProt Q14674); remark: listed apart in the source
[4] = target: active (apo, securin-free) human separase (human) (UniProt Q14674); remark: listed apart in the source

cleavage of the separase biosensor in U2OS cells in anaphase (loss of GFP relative to RFP on chromosomes); the enzyme is the endogenous separase of the cells [2]: 50%
B1: separase biosensor H2B-mRuby2-Scc1(142-467)-mNeonGreen, ^255Leu-Pro to Ala-Ala (domain or fragment)
chain: EITMREEVGNISILQENDFGDFGMDDREIMREGSAFEDDDMLVSTTTSNLLLESEQSTSNLNEKINHLEYEDQYKDDNFGEGNDGGILDDKLISNNDGGIFDDPPALSEAGVMAAEQPAHDDMDEDDNVSMGGPDSPDSVDPVEPMPTMTDQTTLVPNEEEAFALEPIDITVKETKAKRKRKLIVDSVKELDSKTIRAQLSDYSDIVTTLDLAPPTKKLMMWKETGGVEKLFSLPAQPLWNNRLLKLFTRCLTPLVPEDLRKRRKGGEADNLDEFLKEFENPEVPREDQQQQHQQRDVIDEPIIEEPSRLQESVMEASRTNIDESA

KM of cleavage of the FRET dye-quencher peptide by purified active separase (Michaelis-Menten analysis) [3]: 70 µM
B2: Mca-…-Dnp, Scc1 site 1 substrate peptide (peptide)
peptide: Mca-DDREIMREGS-{Dnp′}

cleavage of the 35S-labeled securin^RE fragment (93-150) by separase in vitro (SDS-PAGE, Phosphorimaging) [4]: 50%
B3: securin^RE fragment (aa 93-150) (domain or fragment)
chain: MTEKTVKAKSSVPASDDAYPEIEKFREFNPLDFESFDLPEEHQIAHLPLSGVPLMILD
modifications: also: 35S-methionine-labeled

Second part, the molecule before the results:

Molecule: 25 bp
Kd [1]: 800 nM

Molecule: 50 bp
Kd [1]: 300 nM

Molecule: 50 bp 2
Kd [1]: 220 nM
